The target of this experiment is E2F-1/Y411A (UniProt Q01094 1-437, Y411A). The experiment in a line: co-IP.
Sequence of E2F-1/Y411A (Q01094 whole entry Y411A): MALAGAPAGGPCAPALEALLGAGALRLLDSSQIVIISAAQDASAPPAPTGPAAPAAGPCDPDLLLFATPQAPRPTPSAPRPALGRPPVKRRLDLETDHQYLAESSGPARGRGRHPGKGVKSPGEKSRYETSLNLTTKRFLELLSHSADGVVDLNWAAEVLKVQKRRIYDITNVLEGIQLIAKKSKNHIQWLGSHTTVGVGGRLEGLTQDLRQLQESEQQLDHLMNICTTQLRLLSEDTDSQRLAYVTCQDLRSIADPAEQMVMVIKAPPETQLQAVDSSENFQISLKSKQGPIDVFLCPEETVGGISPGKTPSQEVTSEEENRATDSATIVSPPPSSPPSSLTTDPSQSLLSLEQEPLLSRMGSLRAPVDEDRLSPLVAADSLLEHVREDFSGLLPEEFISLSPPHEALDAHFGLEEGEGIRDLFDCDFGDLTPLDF

B1: pRB (natural protein, mouse (endogenous in ψ-CRE), UniProt P13405 1-921, looked up)
chain: MPPKAPRRAAAAEPPPPPPPPPREDDPAQDSGPEELPLARLEFEEIEEPEFIALCQKLKVPDHVRERAWLTWEKVSSVDGILEGYIQKKKELWGICIFIAAVDLDEMPFTFTELQKSIETSVYKFFDLLKEIDTSTKVDNAMSRLLKKYNVLCALYSKLERTCELIYLTQPSSALSTEINSMLVLKISWITFLLAKGEVLQMEDDLVISFQLMLCVVDYFIKFSPPALLREPYKTAAIPINGSPRTPRRGQNRSARIAKQLENDTRIIEVLCKEHECNIDEVKNVYFKNFIPFINSLGIVSSNGLPEVESLSKRYEEVYLKNKDLDARLFLDHDKTLQTDPIDSFETERTPRKNNPDEEANVVTPHTPVRTVMNTIQQLMVILNSASDQPSENLISYFNNCTVNPKENILKRVKDVGHIFKEKFANAVGQGCVDIGVQRYKLGVRLYYRVMESMLKSEEERLSIQNFSKLLNDNIFHMSLLACALEVVMATYSRSTLQHLDSGTDLSFPWILNVLNLKAFDFYKVIESFIKVEANLTREMIKHLERCEHRIMESLAWLSDSPLFDLIKQSKDGEGPDNLEPACPLSLPLQGNHTAADMYLSPLRSPKKRTSTTRVNSAANTETQAASAFHTQKPLKSTSLALFYKKVYRLAYLRLNTLCARLLSDHPELEHIIWTLFQHTLQNEYELMRDRHLDQIMMCSMYGICKVKNIDLKFKIIVTAYKDLPHAAQETFKRVLIREEEFDSIIVFYNSVFMQRLKTNILQYASTRPPTLSPIPHIPRSPYKFSSSPLRIPGGNIYISPLKSPYKISEGLPTPTKMTPRSRILVSIGESFGTSEKFQKINQMVCNSDRVLKRSAEGGNPPKPLKKLRFDIEGADEADGSKHLPAESKFQQKLAEMTSTRTRMQKQRMNESKDVSNKEEK
For the molecule B1, the “fold less binding than E2F-1/wt” value amounted to 5 fold less.

For the origin of these results see paper PMC2836542 (International Journal of Biological Sciences, 2010).
